Data reported in patent US20060153838A1.

How the values were obtained:
[1] = target: soluble human FcγRIII (biotinylated) (human) (UniProt P08637); experiment: ELISA: IgG captured on PSA-coated plate, biotinylated soluble FcγR, NeutrAvidin-AP, A560 background-subtracted and normalized
[2] = target: soluble human FcγRIIb (biotinylated) (human) (UniProt P31994); experiment: as above
[3] = target: soluble human FcγRIIa (biotinylated) (human) (UniProt P12318); experiment: as above
[4] = target: soluble human FcγRIII (biotinylated) (human) (UniProt P08637); experiment: ELISA screen in a manner similar to the anti-PSA library, anti-TNFα parent IgG, biotinylated soluble FcγR, normalized signal
[5] = target: soluble human FcγRIIb (biotinylated) (human) (UniProt P31994); experiment: as above

UniProt P31994, sequence (P31994 43-217): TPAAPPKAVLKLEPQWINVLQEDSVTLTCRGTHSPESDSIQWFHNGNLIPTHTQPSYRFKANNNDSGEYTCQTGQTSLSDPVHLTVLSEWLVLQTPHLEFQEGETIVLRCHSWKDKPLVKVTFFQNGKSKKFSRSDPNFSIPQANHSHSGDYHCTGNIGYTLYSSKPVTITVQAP
UniProt P08637, sequence (P08637 17-208): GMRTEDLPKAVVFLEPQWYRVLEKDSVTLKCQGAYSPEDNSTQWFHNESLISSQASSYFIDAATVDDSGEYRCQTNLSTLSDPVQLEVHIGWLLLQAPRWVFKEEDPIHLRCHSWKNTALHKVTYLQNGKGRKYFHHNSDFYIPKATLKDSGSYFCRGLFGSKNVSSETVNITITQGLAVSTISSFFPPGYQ
UniProt P12318, sequence (P12318 34-217): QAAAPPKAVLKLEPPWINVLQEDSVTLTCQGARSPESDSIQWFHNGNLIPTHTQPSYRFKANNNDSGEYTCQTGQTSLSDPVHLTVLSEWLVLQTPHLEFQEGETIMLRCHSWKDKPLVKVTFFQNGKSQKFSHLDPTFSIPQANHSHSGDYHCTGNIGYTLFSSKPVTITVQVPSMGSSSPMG

| Substance | relative FcγRIII (relative to parental antibody = 1.0) [1] | relative FcγRIIb (relative to parental antibody = 1.0) [2] | relative FcγRIIa (relative to parental antibody = 1.0) [3] | relative FcγRIII (relative to parental antibody = 1.0) [4] | relative FcγRIIb (relative to parental antibody = 1.0) [5] |
| --- | --- | --- | --- | --- | --- |
| anti-PSA IgG Fc variant E294N (antibody) | 1.14 | 0.672 |  |  |  |
| anti-PSA IgG Fc variant Q295K (antibody) | 1.47 | 0.892 |  |  |  |
| anti-PSA IgG Fc variant Q295L (antibody) | 1.06 | 1.34 | 1.44 |  |  |
| anti-PSA IgG Fc variant S298D (antibody) | 2.31 | 0.188 |  |  |  |
| anti-PSA IgG Fc variant S298N (antibody) | 1.42 | 0.363 |  |  |  |
| anti-PSA IgG Fc variant S298V (antibody) | 2.8 | 0.592 |  |  |  |
| anti-PSA IgG Fc variant Y300I (antibody) | 1.38 | 1.26 |  |  |  |
| anti-PSA IgG Fc variant Y300L (antibody) | 1.81 | 1.36 |  |  |  |
| anti-TNFα IgG Fc variant D280H (antibody) |  |  |  | 1.24 | 0.92 |
| anti-TNFα IgG Fc variant D280Q (antibody) |  |  |  | 1.19 | 0.87 |
| anti-TNFα IgG Fc variant D280Y (antibody) |  |  |  | 1.23 | 2.14 |
| anti-TNFα IgG Fc variant K290G (antibody) |  |  |  | 1.64 | 1.46 |
| anti-TNFα IgG Fc variant K290S (antibody) |  |  |  | 1.23 | 1.4 |
